# In the nanobody polyreactivity screen of Harvey et al. (2022):
# Test: yeast display, Sf9 membrane polyspecificity reagent, FACS + sequencing; frameworks hold sequencing errors
# Outline: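 Using colony PCR, genes from sorted yeast display clones were amplified, then sequenced on MiSeq at 2 × 250 and filtered by CDR length. The clones had been stained with 10% biotinylated, detergent-solubilized Sf9 membrane reagent for 1 hour at 4 °C and sorted by FACS into low and high (top ~1%) gates on anti-HA and streptavidin fluorescence. Polyreactivity labels come from the gate of origin.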
row,Sequence,polyreactivity (PSR sort gate)
1,QVQLVESGGGLVQAGGSLRISCAASGFTFQYYAMGWYRQAPGKERELVATITTSGGNTYYADSVKGRFTISRDNEKNTVYLQMNCLNPEDTAVYYCAARRYRASSRGYGYWGQGTQVTVSS,high polyreactivity
2,QVQLVESGGGLVQAGGSLRISCAASGFTFSAYAMGRYRQAPGKERELVAAISWSGSRTYYADSVKGRFTISRDNAKNTVYLQMNSLKPEDTAVYYCAKEPYDTFGFYEYDYWGQGTQVNVSS,low polyreactivity
3,QVQLVESGGGLVQAGGSLRISCAASGFTFSQYAMGRYRQAPGKERELVAAISVSGGTTYYADSVKGRFTISRDNAKNTVYLQMNSLKPEDTAVYYCDARTPFSSSPYVNTSGYYYWGQGSQVTVSS,high polyreactivity
4,QVQLVESGGGLVQAGGSLRISCAASGFTFSYYAMGWYRQAPGKERDLVAAISGRTGRTYYADSVKGRFTISRDNAKNTVYLQMNSLKPEDTAVYYCAAGYTFSRYDDDYWGQGTQVTVSW,low polyreactivity
5,QVQLVESGGGLVQAGGSLRISCAASGFTLEPNTMGWYRQAPWKERELVAGISWSGGSTYYADSVKGRFTISRDNAKNTVYLQMNSLKPEDTAVYYCNAPPVRRSIVYDRRDYWGQGTQVTVSS,low polyreactivity
6,QVQLVESGGGLVQAGGSLRISCAASGFTYSSYAMGWYRQATGKERELVAAISTRGGSTYYADSVKGRFTISRDNAKNTVYLQMNSLKPEDTAVYYCSTGGRGGRRYEYWGQGTQVTVSS,low polyreactivity
7,QVQLVESGGGLVQAGGSLRISCAASGGIFNYYTMGWYRQAPGKERELVAAINSSGGNTHYADSVKGRFTISRDNAKNTVYLQMNSLKPEDTAVYYCNADARSVWFYRVDYWGQGTQVTVSS,low polyreactivity
8,QVQLVESGGGLVQAGGSLRISCAASGGIFQRYDMGWYRKATGKERELVAAITRSGGSTYYADSVKGRFTISRDNAKNTVYLQMNSLKPEDTAVYYCAARTYGCYEYWGQGTQVTVSS,high polyreactivity
9,QVQLVESGGGLVQAGGSLRISCAASGGTFTNYAMGWYRQAPGKERELVAAITDSGATTYYADSVKGRFTISRDNAKNTVYLQMNSLKPEDTAVYYCNAELDLYTDFDYWGQGTQVTVSS,low polyreactivity
10,QVQLVESGGGLVQAGGSLRISCAASGIIFAYAMGWYRQAPGKERELVAAISGRDGSTYYADSVKGRFTISRDNAKNTVYLQMISLKQEDTAVYFCAAGDYYLQDNYWGQGTQVTVSS,low polyreactivity
11,QVQLVESGGGLVQAGGSLRISCAASGIILSDNAMGWYRQAPGKEREFVAAITGAGGSTYYADSVKGRFTISRDNAKNTVYLQMNSLKPEDTAVYYCAAESYPLSYSSATLSPSYEYWGQGTQVTVSS,low polyreactivity
12,QVQLVESGGGLVQAGGSLRISCAASGITFFRNAMGWYRQAPGKERELVATITKSGGSTYYADSVKGRFTISRDNAKNTVYLQMNSLKPEDTAVYDCAAVRRYPVKYVAYDYWGQGTQVTVSS,low polyreactivity
13,QVQLVESGGGLVQAGGSLRISCAASGITFYFNAMGWFRQAPGKERDLVAVITSVGSTNYADSVKGRFTISRDNAKNTDYIQMNSLKPEDTAVYYCYRTSYVKTPTKRYNYWGQGTQVTVSS,low polyreactivity
14,QVQLVESGGGLVQAGGSLRISCAASGITFYRYTMGWYRQAPGKERELVAAISRSGSSTYYADSVKGRFTISRDNAKNTVDLQMNSLIPEDTAVYYCASRFGDMGYWGQGTQVTVSA,high polyreactivity
15,QVQLVESGGGLVQAGGSLRISCAASGITLYGNVMGWYRQAPGKERELVAAISGGSTFYADSVKGRFTISRDNAKNTVYLQMNSLKPEDTAVYYCAAEWYGYGSNVPYYYWGQGTQVTVSS,low polyreactivity
16,QVQLVESGGGLVQAGGSLRISCAASGLSFYRYTMGWYRHAPGKEREFVAAITAGGSTYYADSVKGRFTISRDNAKNPVYLQMNRLKPEDTAVYYCAPRVLMEQYTYIKYDYWGQGTQVTVSS,high polyreactivity
17,QVQLVESGGGLVQAGGSLRISCAASGLTFDYYAMGSYRQAPGKERELVAAITSGSITYYADSVKGRFTISRDNAKNTVYLQMNSLKPEDTAVYYCAAKRTSFTARYGYWGLGTQVTVSS,high polyreactivity
18,QVQLVESGGGLVQAGGSLRISCAASGRIFAQYVMGWYRQAPGKERELVAAISSGGSTYYADSVKGRFTISRDNAKNTVYLQMNSLKPEDTAVYYCAARSRAHRVGRQPFDYWGQGTQVTVSS,high polyreactivity
19,QVQLVESGGGLVQAGGSLRISCAASGRIFDNYAMGWNRQAPGKERELVAAISVSGDSTYYADSVKGRFTISRDNAKNTVYLQMNSLKPEDTAVYYCAVDPDSYWYLTWADEMYYWGQGTQVTVSS,high polyreactivity
20,QVQLVESGGGLVQAGGSLRISCAASGRIFFAYAMGWYRQAPGKERELVASITWSGSSTTYADSVKGRFTISRDNAKNTVYLQMNSLKPDDTAVYFCGSDPYFWGYHFRRYGSRGQGTQVTVSS,low polyreactivity
21,QVQLVESGGGLVQAGGSLRISCAASGRIFKVYAMGWYRQAPGKERELVAAMSRSGGSTYYADSVKGRFTISRDNAKKTVYFQMNSLKPEDTAVYYCHAYFVYGHACGYDYWGQGSQVTVSS,high polyreactivity
22,QVQLVESGGGLVQAGGSLRISCAASGRIFLFYAMGWYRQAPGKEREWVAAITYSGSTYYADSVKGRFTISRDNAKNTVYLQMNSLIPEDTAVYYCNARYRTYAGTYGYNYWGQGTQVTVSS,high polyreactivity

row,Sequence,polyreactivity (PSR sort gate)
1,QVQLVESGGGLVQAGGSLRISCAASGRIFRQNTMGWYRQAPGKERELVAAISRSGGSTYYADSVKGRFTISRENAKNTVYLQMNSLKPEDTAVYYCNKVTYIVAIWGSDIYVPSEFGYWGQGTQVTVSS,high polyreactivity
2,QVQLVESGGGLVQAGGSLRISCAASGRIFRYYAMGWYRQAPGKERELVAAISNSGGRTYYADSVKRRFTISRDNAKNSVYLQMNSLKPEDTAVYYCKKAHSYRGVSDSDMGYWGQGTEVTVSS,high polyreactivity
3,QVQLVESGGGLVQAGGSLRISCAASGRIFVVYVMGWYRQAPGKEREFVAAITWGGGNTYYADSVKGRFTISRDNAKNTVYLQMNSLKPEDTAVYYCNAVWYWGDMDYWGQGTQVTVSS,low polyreactivity
4,QVQLVESGGGLVQAGGSLRISCAASGRIYPVYVMGWYRQAPGKERELVAAINYNGGSTTYADSVKGRFTISRDNAKNTVYLQMNSLKPADTAVYYCAAGTPAYVETEYEYWGQGTQVTVSS,low polyreactivity
5,QVQLVESGGGLVQAGGSLRISCAASGRNFPNYAMGWYRQAPGKERELVAAITSSGGSTYYADSVKGRFTISRDNAKNTVYLQMNSLKPEDTAVYYCNAGSWIRNDYWGQGTQVTVSS,high polyreactivity
6,QVQLVESGGGLVQAGGSLRISCAASGRSFWTYAMGWYRQAPGKERELVAAITWRGGSTSYADSVTGRFTISRDTAKNTVYLQMHSLKPEDTAVYYCAADTYSYLRGTYEYDYWGQGTQVTVSS,high polyreactivity
7,QVQLVESGGGLVQAGGSLRISCAASGRTFGSYSMGWYRQAPGNEREEVAAISLSAGSTYYADYVKGRFTISRDNAKNTVYLQMNRLKAEDTAVYYCAAGTKWYSQVYIYFYWGQGTQVTVSS,low polyreactivity
8,QVQLVESGGGLVQAGGSLRISCAASGRTFLKNTMGRYRQAPGKERELVAVITRNGDSTYADSVKGRFTISRDNAKNTVYLQMNSLKPEDTAVYYCATTYRDGVYELTTFDYWGQGTQVTVSS,low polyreactivity
9,QVQLVESGGGLVQAGGSLRISCAASGRTFPRYAMGWYRQAPGKERELVAGISWSGGRTYYADSVKGRFTISRDNAKNTVYLQMNSLKPEDTAVYYCAVVSKNLSYRTTFYYWGQGTQVTVSS,high polyreactivity
10,QVQLVESGGGLVQAGGSLRISCAASGRTFRVYSMGWYIQAPGKEWELVASISARSGSTYYADSVKGRFTISRDNAKNTVYLQLNSVKPEDTAVYYSAAARRGFKYDYWGQGTQVTVSS,high polyreactivity
11,QVQLVESGGGLVQAGGSLRISCAASGRTFVVYAMGWYRPAPGKERELVAAIRGSGGSTNYADSVKGRFTISRDNAKNTVYLQMNSLKPEDTAVYYCAATSSLGDFRYDYWGQGTQVTVSS,high polyreactivity
12,QVQLVESGGGLVQAGGSLRISCAASGRTFYTYDMGWYRQAPGKERQLVAAISSSGSTYYADSVKGRFTISRDNAKNTVYLQMNSLKPEDTAGYYCNARTSRYRRGGDSWGQGTQVTVSS,high polyreactivity
13,QVQLVESGGGLVQAGGSLRISCAASGSIFARYAMGWYRQAPGKERELVAAISKRGGSTYYADSVKGRFTISRDNAKNTVYLQMNSLKPEDTAVYYCAAVSYPPYTTKMDYWGQGTLVTVSS,high polyreactivity
14,QVQLVESGGGLVQAGGSLRISCAASGSIFDPYAMGWYRQAPGKERELVAAITSGGSTYYADSVKGRFTISRDNAKNTVYLQMNSLIPEDTAVYYCAKDFDIYYSKYDYWGQGTQVTVSS,low polyreactivity
15,QVQLVESGGGLVQAGGSLRISCAASGSIFGLYAMGWYRQAPGKERELVAAINQSGGSTSYADSVKGRFTISRDNAKNTVYLQMNSLKPEDTAVYYCNRVRLNSEGFDYWGQGTQVTVSS,low polyreactivity
16,QVQLVESGGGLVQAGGSLRISCAASGSIFGYAMACYRQGPGKERELVAAITSSGGSTYYADSVKGRFTISRDNAKNTVYLHKNSLKPEDTAGYYCNAYLRWYITLLRFLAGGDYWGQGYQVTVSS,high polyreactivity
17,QVQLVESGGGLVQAGGSLRISCAASGSIFGYYAMGWYRHSPGTERELVAAISWSDGSTYYADSVKGRFTISRDNAKNTVYLQMNSLKPEDTAVYYCAARFTPYITSDDGHYDYWGQGTQVTVSS,low polyreactivity
18,QVQLVESGGGLVQAGGSLRISCAASGSIFKKYAMGWYIQAPGKEREFVAAITRGTYYADSVKGRFTISRDNAKNTVYLQMNSLKPEDTAVYDCYREYWGRGYYRVRGEYDYWGQGTQVTVSS,low polyreactivity
19,QVQLVESGGGLVQAGGSLRISCAASGSIFSWKDMGWYRQAPGKERELVAAITSGGSTYYADSVKGRFTISRDNAKNTVYLQMNSLKPEDTAVYYCAAVFLLFGFEWSYDYWGQGTQVTVTS,low polyreactivity
20,QVQLVESGGGLVQAGGSLRISCAASGSIFVKNAMGWYRQAPGKEREFVAAITTSGGSTNYADSVKGRFTISRDNAKNTVYLQMNSLKPEDTAVYYCNTDIFPAAYDYWGQGTQVTVSS,low polyreactivity
21,QVQLVESGGGLVQAGGSLRISCAASGSIFVLYAMGWYRQAPGKERELVATITWSGDSTYYADSVKGRFTISRDNAKNTVYLQMNSLKPEDTAVYYCNKRIWDQYDWGQGTQVTVSS,low polyreactivity
